Reference: the supplement of paper PMC11780869

System: Bacillus subtilis
Assay: cleaved RNA product abundance (RNA/gDNA barcode ratio) relative to median wild-type variant (ratio to wild type); higher = more accumulation of the downstream cleavage product
Settings: cleavage site: cggR-gapA (positions -7 to +36 mutated)
In short: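 Sequencing of barcodes from gel-selected, reverse-transcribed cleaved RNA and from genomic DNA, with UMI collapsing, yielded a per-construct RNA:gDNA ratio. Scaled to the median construct with the unmutated site, this ratio is the cleaved product abundance. The barcoded reporters (truncated aprE or tetM mRNAs with mutagenized RNase Y cleavage-site windows) were integrated into the B. subtilis chromosome, and cultures grew in LB at 37°C from OD600 0.0003 to 0.3.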

[1] = experiment (reporter, strain, medium): exp 4a: truncated aprE reporter, strain BJT201 with 2% xylose (RNase J1 expressed)
[2] = experiment (reporter, strain, medium): exp 2b: truncated aprE reporter, strain BJT200

“ACAGACGAAGGAGCCGCAAAGAAGTTATTAAGGAGTGAATAATCCCTCAATATAAATATCTCTCACTTATTTAAA” was tested. Which “cleaved RNA product abundance” value [1] did it give?
Its value is 0.171.

With “ACAGACGAAGGAGCCGCAAAGAAGTTATTAAGGATGAATAATCCCTCAATATAAATATCTCTCACTTATTTAAAG” as the sequence, how does the “cleaved RNA product abundance” value [1] read?
The value was 0.294.

Which results are given for “ACAGACGAAGGAGCCGCAAAGAAGTTATTAAGGATTGAATAATCCCTCAATATAAATATCTCTCACTTATTTAAA”?
cleaved RNA product abundance [2]: 0.217; cleaved RNA product abundance [1]: 0.301

With “ACAGACGAAGGAGCCGCAAAGAAGTTATTAAGGCAAGAATAATCCCTCAATATAAATATCTCTCACTTATTTAAA” as the sequence, how does the “cleaved RNA product abundance” value [2] read?
Its value is 0.104.

And the “cleaved RNA product abundance” value [1]?
The value was 0.115.

How did the “cleaved RNA product abundance” value [2] turn out when “ACAGACGAAGGAGCCGCAAAGAAGTTATTAAGGCAGGAATAATCCCTCAATATAAATATCTCTCACTTATTTAAA” was run?
Its value is 0.102.

And the “cleaved RNA product abundance” value [1]?
Its value is 0.167.

“ACAGACGAAGGAGCCGCAAAGAAGTTATTAAGGCATAAATAATCCCTCAATATAAATATCTCTCACTTATTTAAA” was tested. Which “cleaved RNA product abundance” value [2] did it give?
The value was 0.0865.

And the “cleaved RNA product abundance” value [1]?
The value was 0.107.

“ACAGACGAAGGAGCCGCAAAGAAGTTATTAAGGCATGAAAAATCCCTCAATATAAATATCTCTCACTTATTTAAA” was tested. Which “cleaved RNA product abundance” value [2] did it give?
The value was 0.0832.

What about the “cleaved RNA product abundance” value [1] of the same sequence?
The value was 0.0945.

With “ACAGACGAAGGAGCCGCAAAGAAGTTATTAAGGCATGAACAATCCCTCAATATAAATATCTCTCACTTATTTAAA” as the sequence, how does the “cleaved RNA product abundance” value [1] read?
The value was 0.0684.

How did the “cleaved RNA product abundance” value [1] turn out when “ACAGACGAAGGAGCCGCAAAGAAGTTATTAAGGCATGAATAAACCCTCAATATAAATATCTCTCACTTATTTAAA” was run?
Its value is 0.136.

Which “cleaved RNA product abundance” value [2] does the source give for “ACAGACGAAGGAGCCGCAAAGAAGTTATTAAGGCATGAATAATACCTCAATATAAATATCTCTCACTTATTTAAA” here?
The value was 0.0988.

And the “cleaved RNA product abundance” value [1]?
The value was 0.153.

Which results are given for “ACAGACGAAGGAGCCGCAAAGAAGTTATTAAGGCATGAATAATCACTCAATATAAATATCTCTCACTTATTTAAA”?
cleaved RNA product abundance [2]: 0.118; cleaved RNA product abundance [1]: 0.0873

“ACAGACGAAGGAGCCGCAAAGAAGTTATTAAGGCATGAATAATCCATCAATATAAATATCTCTCACTTATTTAAA” was tested. Which “cleaved RNA product abundance” value [2] did it give?
Its value is 0.102.

And the “cleaved RNA product abundance” value [1]?
The value was 0.114.

With “ACAGACGAAGGAGCCGCAAAGAAGTTATTAAGGCATGAATAATCCCACAATATAAATATCTCTCACTTATTTAAA” as the sequence, how does the “cleaved RNA product abundance” value [2] read?
The value was 0.0968.

What about the “cleaved RNA product abundance” value [1] of the same sequence?
The value was 0.0597.

How did the “cleaved RNA product abundance” value [2] turn out when “ACAGACGAAGGAGCCGCAAAGAAGTTATTAAGGCATGAATAATCCCCCAATATAAATATCTCTCACTTATTTAAA” was run?
The value was 0.11.

What about the “cleaved RNA product abundance” value [1] of the same sequence?
The value was 0.0993.

How did the “cleaved RNA product abundance” value [2] turn out when “ACAGACGAAGGAGCCGCAAAGAAGTTATTAAGGCATGAATAATCCCTAAATATAAATATCTCTCACTTATTTAAA” was run?
Its value is 0.114.

And the “cleaved RNA product abundance” value [1]?
Its value is 0.151.

Which results are given for “ACAGACGAAGGAGCCGCAAAGAAGTTATTAAGGCATGAATAATCCCTCAAAATAAATATCTCTCACTTATTTAAA”?
cleaved RNA product abundance [2]: 0.0982; cleaved RNA product abundance [1]: 0.141

How did the “cleaved RNA product abundance” value [2] turn out when “ACAGACGAAGGAGCCGCAAAGAAGTTATTAAGGCATGAATAATCCCTCAACATAAATATCTCTCACTTATTTAAA” was run?
Its value is 0.119.

And the “cleaved RNA product abundance” value [1]?
Its value is 0.112.

Which “cleaved RNA product abundance” value [2] does the source give for “ACAGACGAAGGAGCCGCAAAGAAGTTATTAAGGCATGAATAATCCCTCAAGATAAATATCTCTCACTTATTTAAA” here?
Its value is 0.0843.

What about the “cleaved RNA product abundance” value [1] of the same sequence?
The value was 0.142.

With “ACAGACGAAGGAGCCGCAAAGAAGTTATTAAGGCATGAATAATCCCTCAATAAAAATATCTCTCACTTATTTAAA” as the sequence, how does the “cleaved RNA product abundance” value [1] read?
The value was 0.0606.

Which “cleaved RNA product abundance” value [1] does the source give for “ACAGACGAAGGAGCCGCAAAGAAGTTATTAAGGCATGAATAATCCCTCAATACAAATATCTCTCACTTATTTAAA” here?
The value was 0.058.

Which “cleaved RNA product abundance” value [1] does the source give for “ACAGACGAAGGAGCCGCAAAGAAGTTATTAAGGCATGAATAATCCCTCAATAGAAATATCTCTCACTTATTTAAA” here?
Its value is 0.0906.

How did the “cleaved RNA product abundance” value [1] turn out when “ACAGACGAAGGAGCCGCAAAGAAGTTATTAAGGCATGAATAATCCCTCAATATAAAAATCTCTCACTTATTTAAA” was run?
Its value is 0.0882.

With “ACAGACGAAGGAGCCGCAAAGAAGTTATTAAGGCATGAATAATCCCTCAATATAAATAACTCTCACTTATTTAAA” as the sequence, how does the “cleaved RNA product abundance” value [2] read?
The value was 0.0904.

And the “cleaved RNA product abundance” value [1]?
The value was 0.111.

How did the “cleaved RNA product abundance” value [2] turn out when “ACAGACGAAGGAGCCGCAAAGAAGTTATTAAGGCATGAATAATCCCTCAATATAAATAGCTCTCACTTATTTAAA” was run?
Its value is 0.0721.

And the “cleaved RNA product abundance” value [1]?
Its value is 0.0902.

Which “cleaved RNA product abundance” value [1] does the source give for “ACAGACGAAGGAGCCGCAAAGAAGTTATTAAGGCATGAATAATCCCTCAATATAAATATCTCTCACTATTTAAAG” here?
Its value is 0.146.

What does the source list for “ACAGACGAAGGAGCCGCAAAGAAGTTATTAAGGCATGAATAATCCCTCAATATAAATATCTCTCACTTATTTAAA”?
cleaved RNA product abundance [2]: 0.0901; cleaved RNA product abundance [1]: 0.125; cleaved RNA product abundance (experiment (reporter, strain, medium): exp 6: tetM reporter, strain 168): 0.124

With “ACAGACGAAGGAGCCGCAAAGAAGTTATTAAGGCATGAATAATCCCTCAATATAAATTTCTCTCACTTATTTAAA” as the sequence, how does the “cleaved RNA product abundance” value [2] read?
Its value is 0.0999.

And the “cleaved RNA product abundance” value [1]?
Its value is 0.0847.

Which results are given for “ACAGACGAAGGAGCCGCAAAGAAGTTATTAAGGCATGAATAATCCCTCAATATAATTATCTCTCACTTATTTAAA”?
cleaved RNA product abundance [2]: 0.0921; cleaved RNA product abundance [1]: 0.095

Which results are given for “ACAGACGAAGGAGCCGCAAAGAAGTTATTAAGGCATGAATAATCCCTCAATATACATATCTCTCACTTATTTAAA”?
cleaved RNA product abundance [2]: 0.112; cleaved RNA product abundance [1]: 0.129

What does the source list for “ACAGACGAAGGAGCCGCAAAGAAGTTATTAAGGCATGAATAATCCCTCAATATATATATCTCTCACTTATTTAAA”?
cleaved RNA product abundance [2]: 0.106; cleaved RNA product abundance [1]: 0.11

“ACAGACGAAGGAGCCGCAAAGAAGTTATTAAGGCATGAATAATCCCTCAATATGAATATCTCTCACTTATTTAAA” was tested. Which “cleaved RNA product abundance” value [1] did it give?
The value was 0.0354.

For “ACAGACGAAGGAGCCGCAAAGAAGTTATTAAGGCATGAATAATCCCTCAATATTAATATCTCTCACTTATTTAAA”, which “cleaved RNA product abundance” value [1] is on record?
The value was 0.0489.

With “ACAGACGAAGGAGCCGCAAAGAAGTTATTAAGGCATGAATAATCCCTCAATGTAAATATCTCTCACTTATTTAAA” as the sequence, how does the “cleaved RNA product abundance” value [1] read?
Its value is 0.0571.

For “ACAGACGAAGGAGCCGCAAAGAAGTTATTAAGGCATGAATAATCCCTCAATTTAAATATCTCTCACTTATTTAAA”, which “cleaved RNA product abundance” value [2] is on record?
The value was 0.059.

And the “cleaved RNA product abundance” value [1]?
Its value is 0.0584.

How did the “cleaved RNA product abundance” value [2] turn out when “ACAGACGAAGGAGCCGCAAAGAAGTTATTAAGGCATGAATAATCCCTCACTATAAATATCTCTCACTTATTTAAA” was run?
Its value is 0.083.

What about the “cleaved RNA product abundance” value [1] of the same sequence?
Its value is 0.136.

How did the “cleaved RNA product abundance” value [1] turn out when “ACAGACGAAGGAGCCGCAAAGAAGTTATTAAGGCATGAATAATCCCTCAGTATAAATATCTCTCACTTATTTAAA” was run?
The value was 0.0715.

Which results are given for “ACAGACGAAGGAGCCGCAAAGAAGTTATTAAGGCATGAATAATCCCTCATTATAAATATCTCTCACTTATTTAAA”?
cleaved RNA product abundance [2]: 0.0915; cleaved RNA product abundance [1]: 0.0852

With “ACAGACGAAGGAGCCGCAAAGAAGTTATTAAGGCATGAATAATCCCTCCATATAAATATCTCTCACTTATTTAAA” as the sequence, how does the “cleaved RNA product abundance” value [2] read?
The value was 0.0936.

“ACAGACGAAGGAGCCGCAAAGAAGTTATTAAGGCATGAATAATCCCTCGATATAAATATCTCTCACTTATTTAAA” was tested. Which “cleaved RNA product abundance” value [1] did it give?
The value was 0.0814.

Which results are given for “ACAGACGAAGGAGCCGCAAAGAAGTTATTAAGGCATGAATAATCCCTCTATATAAATATCTCTCACTTATTTAAA”?
cleaved RNA product abundance [2]: 0.0791; cleaved RNA product abundance [1]: 0.0965

“ACAGACGAAGGAGCCGCAAAGAAGTTATTAAGGCATGAATAATCCCTGAATATAAATATCTCTCACTTATTTAAA” was tested. Which “cleaved RNA product abundance” value [2] did it give?
The value was 0.102.

And the “cleaved RNA product abundance” value [1]?
The value was 0.0864.

What does the source list for “ACAGACGAAGGAGCCGCAAAGAAGTTATTAAGGCATGAATAATCCCTTAATATAAATATCTCTCACTTATTTAAA”?
cleaved RNA product abundance [2]: 0.411; cleaved RNA product abundance [1]: 0.291

With “ACAGACGAAGGAGCCGCAAAGAAGTTATTAAGGCATGAATAATCCGTCAATATAAATATCTCTCACTTATTTAAA” as the sequence, how does the “cleaved RNA product abundance” value [1] read?
Its value is 0.0753.
